# Assays:
# [1] = target: T1, proMch4 (35S-labeled wild type Mch4)
# T1 chain: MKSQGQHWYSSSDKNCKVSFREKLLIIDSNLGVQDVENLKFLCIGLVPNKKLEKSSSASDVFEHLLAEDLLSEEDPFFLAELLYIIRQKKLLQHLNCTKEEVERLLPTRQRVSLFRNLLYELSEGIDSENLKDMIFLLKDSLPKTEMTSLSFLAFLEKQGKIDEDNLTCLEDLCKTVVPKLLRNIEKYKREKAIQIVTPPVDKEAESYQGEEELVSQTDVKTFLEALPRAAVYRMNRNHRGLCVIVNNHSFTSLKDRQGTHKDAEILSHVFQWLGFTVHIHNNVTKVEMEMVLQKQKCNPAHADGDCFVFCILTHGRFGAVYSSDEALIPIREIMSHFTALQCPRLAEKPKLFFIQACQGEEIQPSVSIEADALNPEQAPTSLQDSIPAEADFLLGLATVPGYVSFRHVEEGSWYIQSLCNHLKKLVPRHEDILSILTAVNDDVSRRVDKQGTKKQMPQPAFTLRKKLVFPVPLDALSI
# DEVD-AMC = target: T2, DEVD-AMC (not fully specified)
# T2 chain: DEVD
# YVAD-AMC = target: T3, YVAD-AMC (not fully specified)
# T3 chain: YVAD
# truncated Mch4-M134 = target: T4, truncated Mch4-M134
# T4 chain: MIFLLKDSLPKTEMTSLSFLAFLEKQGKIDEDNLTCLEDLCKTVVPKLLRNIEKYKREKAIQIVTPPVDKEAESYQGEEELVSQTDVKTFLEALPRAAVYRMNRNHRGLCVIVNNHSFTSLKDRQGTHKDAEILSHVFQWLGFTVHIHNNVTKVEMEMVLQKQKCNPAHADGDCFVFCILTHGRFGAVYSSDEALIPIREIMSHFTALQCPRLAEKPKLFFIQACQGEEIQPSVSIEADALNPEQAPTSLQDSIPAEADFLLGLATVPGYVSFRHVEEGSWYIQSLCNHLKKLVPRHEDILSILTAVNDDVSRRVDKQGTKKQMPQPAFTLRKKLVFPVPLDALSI
Protein,cleavage of proenzyme [1],"cleavage of 35S-labeled proenzyme, SDS-PAGE and autoradiography [1]",further results
TX (protein) QISPNKKAHPNMEAGPPESGESTDALKLCPHEEFLRLCKERAEEIYPIKERNNRTRLALIICNTEFDHLPPRNGADFDITGMKELLEGLDYSVDVEENLTARDMESALRAFATRPEHKSSDSTFLVLMSHGILEGICGTVHDEKKPDVLLYDTIFQIFNNRNCLSLKDKPKVIIVQACRGANRGELWVRDSPASLEVASSQSSENLEEDAVYKTHVEKDFIAFCSSTPHNVSWRDSTMGSIFITQLITCFQKYSWCCHLEEVFRKVQQSFETPRAKAQMPTIERLSMTRYFYLFPGN,none of these enzymes were able to efficiently process proMch4,,
Mch2 (protein) AFYKREMFDPAEKYKMDHRRRGIALIFNHERFFWHLTLPERRGTCADRDNLTRRFSDLGFEVKCFNDLKAEELLLKIHEVSTVSHADADCFVCVFLSHGEGNHIYAYDAKIEIQTLTGLFKGDKCHSLVGKPKIFIIQACRGNQHDVPVIPLDVVDNQTEKLDTNITEVDAASVYTLPAGADFLMCYSVAEGYYSHRETVNGSWYIQDLCEMLGKYGSSLEFTELLTLVNRKVSQRRVDFCKDPSAIGKKQVPCFASMLTKKLHFFPKSN,none of these enzymes were able to efficiently process proMch4,,
recombinant CPP32 (protein) SGISLDNSYKMDYPEMGLCIIINNKNFHKSTGMTSRSGTDVDAANLRETFRNLKYEVRNKNDLTREEIVELMRDVSKEDHSKRSSFVCVLLSHGEEGIIFGTNGPVDLKKITNFFRGDRCRSLTGKPKLFIIQACRGTELDCGIETDSGVDDDMACHKIPVEADFLYAYSTAPGYYSWRNSKDGSWFIQSLCAMLKQYADKLEFMHILTRVNRKVATEFESFSFDATFHAKKQIPCIVSMLTKELYFYH,,there was no significant cleavage of proMch4 when incubated with recombinant CPP32 or Mch3 enzymes,
bacterially expressed recombinant Mch4 (GST-Mch4 fusion protein) (protein) IQIVTPPVDKEAESYQGEEELVSQTDVKTFLEALPRAAVYRMNRNHRGLCVIVNNHSFTSLKDRQGTHKDAEILSHVFQWLGFTVHIHNNVTKVEMEMVLQKQKCNPAHADGDCFVFCILTHGRFGAVYSSDEALIPIREIMSHFTALQCPRLAEKPKLFFIQACQGEEIQPSVSIEADALNPEQAPTSLQDSIPAEADFLLGLATVPGYVSFRHVEEGSWYIQSLCNHLKKLVPRHEDILSILTAVNDDVSRRVDKQGTKKQMPQPAFTLRKKLVFPVPLDALSI,,,"Km (DEVD-AMC) (DEVD-AMC): 130 µM; Vmax/Km (DEVD-AMC): Vmax/KmMch4=18; Km (YVAD-AMC) (YVAD-AMC): 150 µM; cleavage of 35S-labeled proenzyme, SDS-PAGE and autoradiography (truncated Mch4-M134): Although Mch4 was able to cleave proMch4, its activity towards its proenzyme was significantly lower than that towards proCPP32 and proMch3 (FIG. 5B, lane 7)"
ICE (protein) NPAMPTSSGSEGNVKLCSLEEAQRIWKQKSAEIYPIMDKSSRTRLALIICNEEFDSIPRRTGAEVDITGMTMLLQNLGYSVDVKKNLTASDMTTELEAFAHRPEHKTSDSTFLVFMSHGIREGICGKKHSEQVPDILQLNAIFNMLNTKNCPSLKDKPKVIIIQACRGDSPGVVWFKDSVGVSGNLSLPTTEEFEDDAIKKAHIEKDFIAFCSSTPDNVSWRHPTMGSVFIGRLIEHMQEYACSCDVEEIFRKVRFSFEQPDGRAQMPTTERVTLTRCFYLFPGH,none of these enzymes were able to efficiently process proMch4,,
recombinant Mch3 (protein) AKPDRSSFVPSLFSKKKKNVTMRSIKTTRDRVPTYQYNMNFEKLGKCIIINNKNFDKVTGMGVRNGTDKDAEALFKCFRSLGFDVIVYNDCSCAKMQDLLKKASEEDHTNAACFACILLSHGEENVIYGKDGVTPIKDLTAHFRGDRCKTLLEKPKLFFIQACRGTELDDGIQADSGPINDTDANPRYKIPVEADFLFAYSTVPGYYSWRSPGRGSWFVQALCSILEEHGKDLEIMQILTRVNDRVARHFESQSDDPHFHEKKQIPCVVSMLTKELYFSQ,,there was no significant cleavage of proMch4 when incubated with recombinant CPP32 or Mch3 enzymes,
